Experimental data taken from ChEMBL document CHEMBL1122856, “Study on the inhibition of adenosine deaminase” (J Med Chem, 1985).

Substrate: Cc1c([C@@H](C)O)ncn1C1O[C@H](CO)[C@@H](O)[C@H]1O
Description: Ability to inhibit the deamination of adenosine by calf intestine adenosine deaminase expressed as Km

B1: Adenosine deaminase (Bos taurus), P56658 (protein)
chain: MAQTPAFNKPKVELHVHLDGAIKPETILYYGRKRGIALPADTPEELQNIIGMDKPLSLPEFLAKFDYYMPAIAGCREAVKRIAYEFVEMKAKDGVVYVEVRYSPHLLANSKVEPIPWNQAEGDLTPDEVVSLVNQGLQEGERDFGVKVRSILCCMRHQPSWSSEVVELCKKYREQTVVAIDLAGDETIEGSSLFPGHVKAYAEAVKSGVHRTVHAGEVGSANVVKEAVDTLKTERLGHGYHTLEDATLYNRLRQENMHFEVCPWSSYLTGAWKPDTEHPVVRFKNDQVNYSLNTDDPLIFKSTLDTDYQMTKNEMGFTEEEFKRLNINAAKSSFLPEDEKKELLDLLYKAYGMPSPASAEQCL
Km: 39 µM
